Patent US20260193342A1 (ZOETIS SERVICES, published 2026)

Experiments:
[1] = target: T1, canine FcRn complex (FcRn-α subunit and β-microglobulin) (canine, UniProt A0A8I3PFR8 25-347, biotin on the BAP tag by BirA (Example 5 only)); assay: SPR (Biacore), biotinylated FcRn on SA chip, IgG flowed, pH 7.4, 15 C
[2] = target: T1, canine FcRn complex (FcRn-α subunit and …); assay: SPR (Biacore), biotinylated FcRn on SA chip, IgG flowed, pH 6, 15 C
[3] = target: T1, canine FcRn complex (FcRn-α subunit and …); assay: SPR (Biacore), biotinylated FcRn on SA chip, IgG flowed, pH 7.4, 15 C; remark: listed apart in the source
[4] = target: T1, canine FcRn complex (FcRn-α subunit and …); assay: SPR (Biacore), biotinylated FcRn on SA chip, IgG flowed, pH 6, 15 C; remark: listed apart in the source

T1 sequence (A0A8I3PFR8 entry or part of it, one chain of several): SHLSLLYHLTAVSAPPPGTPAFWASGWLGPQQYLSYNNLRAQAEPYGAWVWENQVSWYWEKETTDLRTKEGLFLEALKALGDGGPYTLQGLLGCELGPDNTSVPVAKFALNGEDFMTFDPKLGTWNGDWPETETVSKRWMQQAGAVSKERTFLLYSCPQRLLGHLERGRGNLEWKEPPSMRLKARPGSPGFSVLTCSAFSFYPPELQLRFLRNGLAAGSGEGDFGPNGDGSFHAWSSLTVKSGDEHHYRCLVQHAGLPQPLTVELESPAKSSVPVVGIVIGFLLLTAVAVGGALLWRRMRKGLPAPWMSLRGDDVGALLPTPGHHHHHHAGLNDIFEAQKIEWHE

Kd [1] [nM]	Kd [2] [nM]	Kd [3] [nM]	Kd [4] [nM]	Binder
		2750	6.16	mAb1, caninized anti-IL31 antibody 34D03, canine IgGB, N434V (antibody, VH/VL: the caninized 34D03 entries of the listing; also called ID No. 20; copies: 2 + 2) heavy: EVQLVESGGDLVKPGGSLRLSCVASGFTFSNYGMSWVRQAPGKGLQWVATISYGGSYTYYPDNIKGRFTISRDNAKNTLYLQMNSLRAEDTAMYYCVRGYGYDTMDYWGQGTLVTVSSASTTAPSVFPLAPSCGSTSGSTVALACLVSGYFPEPVTVSWNSGSLTSGVHTFPSVLQSSGLYSLSSMVTVPSSRWPSETFTCNVAHPASKTKVDKPVPKRENGRVPRPPDCPKCPAPEMLGGPSVFIFPPKPKDTLLIARTPEVTCVVVDLDPEDPEVQISWFVDGKQMQTAKTQPREEQFNGTYRVVSVLPIGHQDWLKGKQFTCKVNNKALPSPIERTISKARGQAHQPSVYVLPPSREELSKNTVSLTCLIKDFFPPDIDVEWQSNGQQEPESKYRTTPPQLDEDGSYFLYSKLSVDKSRWQRGDTFICAVMHEALHVHYTQESLSHSPGK light: EIVMTQSPASLSLSQEEKVTITCKASQSVSFAGTGLMHWYQQKPGQAPKLLIYRASNLEAGVPSRFSGSGSGTDFSFTISSLEPEDVAVYYCQQSREYPWTFGQGTKLEIKRNDAQPAVYLFQPSPDQLHTGSASVVCLLNSFYPKDINVKWKVDGVIQDTGIQESVTEQDKDSTYSLSSTLTMSSTEYLSHELYSCEITHKSLPSTLIKSFQRSEC
		554	34.2	mAb1, caninized anti-IL31 antibody 34D03, canine IgGB, N434T (antibody, VH/VL: the caninized 34D03 entries of the listing; also called ID No. 19; copies: 2 + 2) heavy: EVQLVESGGDLVKPGGSLRLSCVASGFTFSNYGMSWVRQAPGKGLQWVATISYGGSYTYYPDNIKGRFTISRDNAKNTLYLQMNSLRAEDTAMYYCVRGYGYDTMDYWGQGTLVTVSSASTTAPSVFPLAPSCGSTSGSTVALACLVSGYFPEPVTVSWNSGSLTSGVHTFPSVLQSSGLYSLSSMVTVPSSRWPSETFTCNVAHPASKTKVDKPVPKRENGRVPRPPDCPKCPAPEMLGGPSVFIFPPKPKDTLLIARTPEVTCVVVDLDPEDPEVQISWFVDGKQMQTAKTQPREEQFNGTYRVVSVLPIGHQDWLKGKQFTCKVNNKALPSPIERTISKARGQAHQPSVYVLPPSREELSKNTVSLTCLIKDFFPPDIDVEWQSNGQQEPESKYRTTPPQLDEDGSYFLYSKLSVDKSRWQRGDTFICAVMHEALHTHYTQESLSHSPGK light: EIVMTQSPASLSLSQEEKVTITCKASQSVSFAGTGLMHWYQQKPGQAPKLLIYRASNLEAGVPSRFSGSGSGTDFSFTISSLEPEDVAVYYCQQSREYPWTFGQGTKLEIKRNDAQPAVYLFQPSPDQLHTGSASVVCLLNSFYPKDINVKWKVDGVIQDTGIQESVTEQDKDSTYSLSSTLTMSSTEYLSHELYSCEITHKSLPSTLIKSFQRSEC
		3.11	0.906	mAb1, caninized anti-IL31 antibody 34D03, canine IgGB, N434R (antibody, VH/VL: the caninized 34D03 entries of the listing; also called ID No. 17; copies: 2 + 2) heavy: EVQLVESGGDLVKPGGSLRLSCVASGFTFSNYGMSWVRQAPGKGLQWVATISYGGSYTYYPDNIKGRFTISRDNAKNTLYLQMNSLRAEDTAMYYCVRGYGYDTMDYWGQGTLVTVSSASTTAPSVFPLAPSCGSTSGSTVALACLVSGYFPEPVTVSWNSGSLTSGVHTFPSVLQSSGLYSLSSMVTVPSSRWPSETFTCNVAHPASKTKVDKPVPKRENGRVPRPPDCPKCPAPEMLGGPSVFIFPPKPKDTLLIARTPEVTCVVVDLDPEDPEVQISWFVDGKQMQTAKTQPREEQFNGTYRVVSVLPIGHQDWLKGKQFTCKVNNKALPSPIERTISKARGQAHQPSVYVLPPSREELSKNTVSLTCLIKDFFPPDIDVEWQSNGQQEPESKYRTTPPQLDEDGSYFLYSKLSVDKSRWQRGDTFICAVMHEALHRHYTQESLSHSPGK light: EIVMTQSPASLSLSQEEKVTITCKASQSVSFAGTGLMHWYQQKPGQAPKLLIYRASNLEAGVPSRFSGSGSGTDFSFTISSLEPEDVAVYYCQQSREYPWTFGQGTKLEIKRNDAQPAVYLFQPSPDQLHTGSASVVCLLNSFYPKDINVKWKVDGVIQDTGIQESVTEQDKDSTYSLSSTLTMSSTEYLSHELYSCEITHKSLPSTLIKSFQRSEC
		6960	20.2	mAb1, caninized anti-IL31 antibody 34D03, canine IgGB, N434S (antibody, VH/VL: the caninized 34D03 entries of the listing; also called ID No. 18; copies: 2 + 2) heavy: EVQLVESGGDLVKPGGSLRLSCVASGFTFSNYGMSWVRQAPGKGLQWVATISYGGSYTYYPDNIKGRFTISRDNAKNTLYLQMNSLRAEDTAMYYCVRGYGYDTMDYWGQGTLVTVSSASTTAPSVFPLAPSCGSTSGSTVALACLVSGYFPEPVTVSWNSGSLTSGVHTFPSVLQSSGLYSLSSMVTVPSSRWPSETFTCNVAHPASKTKVDKPVPKRENGRVPRPPDCPKCPAPEMLGGPSVFIFPPKPKDTLLIARTPEVTCVVVDLDPEDPEVQISWFVDGKQMQTAKTQPREEQFNGTYRVVSVLPIGHQDWLKGKQFTCKVNNKALPSPIERTISKARGQAHQPSVYVLPPSREELSKNTVSLTCLIKDFFPPDIDVEWQSNGQQEPESKYRTTPPQLDEDGSYFLYSKLSVDKSRWQRGDTFICAVMHEALHSHYTQESLSHSPGK light: EIVMTQSPASLSLSQEEKVTITCKASQSVSFAGTGLMHWYQQKPGQAPKLLIYRASNLEAGVPSRFSGSGSGTDFSFTISSLEPEDVAVYYCQQSREYPWTFGQGTKLEIKRNDAQPAVYLFQPSPDQLHTGSASVVCLLNSFYPKDINVKWKVDGVIQDTGIQESVTEQDKDSTYSLSSTLTMSSTEYLSHELYSCEITHKSLPSTLIKSFQRSEC
		25300	1.98	mAb1, caninized anti-IL31 antibody 34D03, canine IgGB, N434W (antibody, VH/VL: the caninized 34D03 entries of the listing; also called ID No. 21; copies: 2 + 2) heavy: EVQLVESGGDLVKPGGSLRLSCVASGFTFSNYGMSWVRQAPGKGLQWVATISYGGSYTYYPDNIKGRFTISRDNAKNTLYLQMNSLRAEDTAMYYCVRGYGYDTMDYWGQGTLVTVSSASTTAPSVFPLAPSCGSTSGSTVALACLVSGYFPEPVTVSWNSGSLTSGVHTFPSVLQSSGLYSLSSMVTVPSSRWPSETFTCNVAHPASKTKVDKPVPKRENGRVPRPPDCPKCPAPEMLGGPSVFIFPPKPKDTLLIARTPEVTCVVVDLDPEDPEVQISWFVDGKQMQTAKTQPREEQFNGTYRVVSVLPIGHQDWLKGKQFTCKVNNKALPSPIERTISKARGQAHQPSVYVLPPSREELSKNTVSLTCLIKDFFPPDIDVEWQSNGQQEPESKYRTTPPQLDEDGSYFLYSKLSVDKSRWQRGDTFICAVMHEALHWHYTQESLSHSPGK light: EIVMTQSPASLSLSQEEKVTITCKASQSVSFAGTGLMHWYQQKPGQAPKLLIYRASNLEAGVPSRFSGSGSGTDFSFTISSLEPEDVAVYYCQQSREYPWTFGQGTKLEIKRNDAQPAVYLFQPSPDQLHTGSASVVCLLNSFYPKDINVKWKVDGVIQDTGIQESVTEQDKDSTYSLSSTLTMSSTEYLSHELYSCEITHKSLPSTLIKSFQRSEC

The next lines start with the binder.

Binder	Kd [1] [nM]	Kd [2] [nM]	Kd [3] [nM]	Kd [4] [nM]
mAb1, caninized anti-IL31 antibody 34D03, canine IgGB, N434L (antibody, VH/VL: the caninized 34D03 entries of the listing; also called ID No. 14; copies: 2 + 2) heavy: EVQLVESGGDLVKPGGSLRLSCVASGFTFSNYGMSWVRQAPGKGLQWVATISYGGSYTYYPDNIKGRFTISRDNAKNTLYLQMNSLRAEDTAMYYCVRGYGYDTMDYWGQGTLVTVSSASTTAPSVFPLAPSCGSTSGSTVALACLVSGYFPEPVTVSWNSGSLTSGVHTFPSVLQSSGLYSLSSMVTVPSSRWPSETFTCNVAHPASKTKVDKPVPKRENGRVPRPPDCPKCPAPEMLGGPSVFIFPPKPKDTLLIARTPEVTCVVVDLDPEDPEVQISWFVDGKQMQTAKTQPREEQFNGTYRVVSVLPIGHQDWLKGKQFTCKVNNKALPSPIERTISKARGQAHQPSVYVLPPSREELSKNTVSLTCLIKDFFPPDIDVEWQSNGQQEPESKYRTTPPQLDEDGSYFLYSKLSVDKSRWQRGDTFICAVMHEALHLHYTQESLSHSPGK light: EIVMTQSPASLSLSQEEKVTITCKASQSVSFAGTGLMHWYQQKPGQAPKLLIYRASNLEAGVPSRFSGSGSGTDFSFTISSLEPEDVAVYYCQQSREYPWTFGQGTKLEIKRNDAQPAVYLFQPSPDQLHTGSASVVCLLNSFYPKDINVKWKVDGVIQDTGIQESVTEQDKDSTYSLSSTLTMSSTEYLSHELYSCEITHKSLPSTLIKSFQRSEC	997	14.3		
mAb1, caninized anti-IL31 antibody 34D03, canine IgGB, N434M (antibody, VH/VL: the caninized 34D03 entries of the listing; also called ID No. 15; copies: 2 + 2) heavy: EVQLVESGGDLVKPGGSLRLSCVASGFTFSNYGMSWVRQAPGKGLQWVATISYGGSYTYYPDNIKGRFTISRDNAKNTLYLQMNSLRAEDTAMYYCVRGYGYDTMDYWGQGTLVTVSSASTTAPSVFPLAPSCGSTSGSTVALACLVSGYFPEPVTVSWNSGSLTSGVHTFPSVLQSSGLYSLSSMVTVPSSRWPSETFTCNVAHPASKTKVDKPVPKRENGRVPRPPDCPKCPAPEMLGGPSVFIFPPKPKDTLLIARTPEVTCVVVDLDPEDPEVQISWFVDGKQMQTAKTQPREEQFNGTYRVVSVLPIGHQDWLKGKQFTCKVNNKALPSPIERTISKARGQAHQPSVYVLPPSREELSKNTVSLTCLIKDFFPPDIDVEWQSNGQQEPESKYRTTPPQLDEDGSYFLYSKLSVDKSRWQRGDTFICAVMHEALHMHYTQESLSHSPGK light: EIVMTQSPASLSLSQEEKVTITCKASQSVSFAGTGLMHWYQQKPGQAPKLLIYRASNLEAGVPSRFSGSGSGTDFSFTISSLEPEDVAVYYCQQSREYPWTFGQGTKLEIKRNDAQPAVYLFQPSPDQLHTGSASVVCLLNSFYPKDINVKWKVDGVIQDTGIQESVTEQDKDSTYSLSSTLTMSSTEYLSHELYSCEITHKSLPSTLIKSFQRSEC			146000	14.2
mAb1, caninized anti-IL31 antibody 34D03, canine IgGB, N434Q (antibody, VH/VL: the caninized 34D03 entries of the listing; also called ID No. 16; copies: 2 + 2) heavy: EVQLVESGGDLVKPGGSLRLSCVASGFTFSNYGMSWVRQAPGKGLQWVATISYGGSYTYYPDNIKGRFTISRDNAKNTLYLQMNSLRAEDTAMYYCVRGYGYDTMDYWGQGTLVTVSSASTTAPSVFPLAPSCGSTSGSTVALACLVSGYFPEPVTVSWNSGSLTSGVHTFPSVLQSSGLYSLSSMVTVPSSRWPSETFTCNVAHPASKTKVDKPVPKRENGRVPRPPDCPKCPAPEMLGGPSVFIFPPKPKDTLLIARTPEVTCVVVDLDPEDPEVQISWFVDGKQMQTAKTQPREEQFNGTYRVVSVLPIGHQDWLKGKQFTCKVNNKALPSPIERTISKARGQAHQPSVYVLPPSREELSKNTVSLTCLIKDFFPPDIDVEWQSNGQQEPESKYRTTPPQLDEDGSYFLYSKLSVDKSRWQRGDTFICAVMHEALHQHYTQESLSHSPGK light: EIVMTQSPASLSLSQEEKVTITCKASQSVSFAGTGLMHWYQQKPGQAPKLLIYRASNLEAGVPSRFSGSGSGTDFSFTISSLEPEDVAVYYCQQSREYPWTFGQGTKLEIKRNDAQPAVYLFQPSPDQLHTGSASVVCLLNSFYPKDINVKWKVDGVIQDTGIQESVTEQDKDSTYSLSSTLTMSSTEYLSHELYSCEITHKSLPSTLIKSFQRSEC			21.8	5.91
